Our source for the NaCl concentration up to which the complex was stable values is doi:10.1101/2022.04.25.489347.

The target in assay [1] is AtFKBP43 (1-136) (Arabidopsis thaliana) (UniProt F4J9Q6). Briefly: pull-down.
In assay [2] the target is AtFKBP43 (1-164) (Arabidopsis thaliana) (UniProt F4J9Q6). Briefly: pull-down.
Chain of AtFKBP43 (1-164) (Arabidopsis thaliana) (F4J9Q6 1-164): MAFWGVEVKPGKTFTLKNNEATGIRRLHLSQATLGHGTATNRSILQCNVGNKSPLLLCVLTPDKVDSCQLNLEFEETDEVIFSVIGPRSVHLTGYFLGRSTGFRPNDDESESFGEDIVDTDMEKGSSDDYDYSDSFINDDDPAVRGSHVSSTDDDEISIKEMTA

Chain of AtFKBP43 (1-136) (Arabidopsis thaliana) (F4J9Q6 1-136): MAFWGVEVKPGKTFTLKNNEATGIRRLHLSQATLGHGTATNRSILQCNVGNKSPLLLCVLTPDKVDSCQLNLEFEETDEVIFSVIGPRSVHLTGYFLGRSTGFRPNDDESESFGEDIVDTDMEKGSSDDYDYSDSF

In the case of “H3/H4 tetramer (from UniProt P84233 1-136; P62799 1-103) (complex)”, the NaCl concentration up to which the complex was stable in assay [1] and in assay [2] was 1 M each time.
“H2A/H2B dimer (from UniProt P06897 1-130; P02281 1-126) (complex)”: the NaCl concentration up to which the complex was stable in assay [1] and in assay [2] was 0.3 M throughout.
